Experimental data as given in the Immune Epitope Database (IEDB).

Tests used:
HLA-C*12:03 = assay: IEDB peptide-MHC binding, purified MHC/direct/fluorescence; filed as Kd, often an IC50 or EC50 that approximates it; ≥ and ≤ were set here for values at or beyond the usual limits of such assays; conditions: source organism: Salmonella enterica subsp. enterica serovar Typhi
HLA-A*02:01 [1] = assay: as above
HLA-A*69:01 [2] = assay: as above
HLA-A*02:11 [3] = assay: as above
HLA-A*02:50 = assay: IEDB peptide-MHC binding, purified MHC/competitive/fluorescence; filed as Kd, often an IC50 or EC50 that approximates it; ≥ and ≤ were set here for values at or beyond the usual limits of such assays
HLA-B*18:01 [4] = assay: as above; conditions: source organism: Canarypox virus
HLA-A*02:16 = assay: as above; conditions: source organism: Canarypox virus
HLA-B*51:01 = assay: as above; conditions: source organism: Canarypox virus
HLA-B*15:01 [5] = assay: as above; conditions: source organism: Canarypox virus
HLA-B*27:03 = assay: as above; conditions: source organism: Canarypox virus
HLA-A*68:02 [6] = assay: as above; conditions: source organism: Canarypox virus
HLA-A*26:01 [7] = assay: as above; conditions: source organism: Canarypox virus
HLA-A*02:01 [8] = assay: as above; conditions: source organism: Canarypox virus
HLA-B*15:17 [9] = assay: as above; conditions: source organism: Canarypox virus
HLA-B*39:01 [10] = assay: as above; conditions: source organism: Canarypox virus
HLA-B*57:01 [11] = assay: as above; conditions: source organism: Canarypox virus
HLA-A*69:01 [12] = assay: as above; conditions: source organism: Canarypox virus
HLA-B*46:01 = assay: as above; conditions: source organism: Canarypox virus
HLA-A*02:03 = assay: as above
HLA-A*02:19 = assay: as above; conditions: source organism: Canarypox virus
HLA-A*24:03 = assay: as above; conditions: source organism: Canarypox virus
HLA-A*02:11 [13] = assay: as above; conditions: source organism: Canarypox virus
HLA-A*02:12 = assay: as above; conditions: source organism: Canarypox virus
HLA-A*23:01 = assay: as above; conditions: source organism: Canarypox virus
HLA-A*31:01 [14] = assay: as above; conditions: source organism: Canarypox virus
HLA-B*39:01 [15] = assay: IEDB peptide-MHC binding, purified MHC/direct/fluorescence; filed as Kd, often an IC50 or EC50 that approximates it; ≥ and ≤ were set here for values at or beyond the usual limits of such assays
HLA-B*15:09 = assay: as above
HLA-B*18:01 [16] = assay: as above; conditions: source organism: Mycobacterium tuberculosis
HLA-B*48:01 = assay: as above; conditions: source organism: Mycobacterium tuberculosis
HLA-B*40:01 = assay: as above; conditions: source organism: Mycobacterium tuberculosis
HLA-A*01:01 = assay: as above; conditions: source organism: Mycobacterium tuberculosis
HLA-B*15:01 [17] = assay: as above; conditions: source organism: Mycobacterium tuberculosis
HLA-B*08:01 = assay: as above; conditions: source organism: Mycobacterium tuberculosis str. Haarlem
HLA-A*68:02 [18] = assay: as above; conditions: source organism: Mycobacterium tuberculosis
HLA-B*27:05 = assay: as above; conditions: source organism: Mycobacterium tuberculosis
HLA-A*26:01 [19] = assay: as above; conditions: source organism: Mycobacterium tuberculosis str. Haarlem
HLA-B*07:02 = assay: as above; conditions: source organism: Mycobacterium tuberculosis
HLA-B*15:17 [20] = assay: as above; conditions: source organism: Mycobacterium tuberculosis
HLA-A*11:01 = assay: as above; conditions: source organism: Mycobacterium tuberculosis
HLA-B*57:01 [21] = assay: as above; conditions: source organism: Mycobacterium tuberculosis
HLA-B*44:02 = assay: as above; conditions: source organism: Mycobacterium tuberculosis
HLA-B*58:01 = assay: as above; conditions: source organism: Mycobacterium tuberculosis
HLA-A*31:01 [22] = assay: as above; conditions: source organism: Mycobacterium tuberculosis
HLA-A*03:01 = assay: as above; conditions: source organism: Mycobacterium tuberculosis
[23] = source organism: Salmonella enterica subsp. enterica serovar Typhi
[24] = source organism: Mycobacterium tuberculosis
[25] = source organism: Mycobacterium tuberculosis str. Haarlem

## FIKNPACTV
HLA-C*12:03
  Kd: ≤ 0.001 µM
HLA-A*02:01 [1]; [23]
  Kd: 6.36 µM
HLA-A*69:01 [2]; [23]
  Kd: 0.154 µM
HLA-A*02:11 [3]; [23]
  Kd: 0.002 µM
HLA-A*02:50; [23]
  Kd: 0.0019 µM

## GTIIVHPNK
HLA-B*18:01 [4]
  Kd: ≥ 20 µM
HLA-A*02:16
  Kd: ≥ 20 µM
HLA-B*51:01
  Kd: ≥ 20 µM
HLA-B*15:01 [5]
  Kd: ≥ 20 µM
HLA-B*27:03
  Kd: ≥ 20 µM
HLA-A*68:02 [6]
  Kd: ≥ 20 µM
HLA-A*26:01 [7]
  Kd: ≥ 20 µM
HLA-A*02:01 [8]
  Kd: ≥ 20 µM
HLA-B*15:17 [9]
  Kd: ≥ 20 µM
HLA-B*39:01 [10]
  Kd: ≥ 20 µM
HLA-B*57:01 [11]
  Kd: ≥ 20 µM
HLA-A*69:01 [12]
  Kd: ≥ 20 µM
HLA-B*46:01
  Kd: ≥ 20 µM
HLA-A*02:03; source organism: Canarypox virus
  Kd: ≥ 20 µM
HLA-A*02:19
  Kd: ≥ 20 µM
HLA-A*24:03
  Kd: ≥ 20 µM
HLA-A*02:11 [13]
  Kd: ≥ 20 µM
HLA-A*02:12
  Kd: ≥ 20 µM
HLA-A*23:01
  Kd: ≥ 20 µM
HLA-A*31:01 [14]
  Kd: 0.101 µM

## SFYGYGFNV
HLA-A*02:01 [1]; [24]
  Kd: 0.413 µM
HLA-A*69:01 [2]; [24]
  Kd: 0.052 µM
HLA-A*02:11 [3]; [25]
  Kd: 0.01 µM
HLA-A*02:50; source organism: Mycobacterium tuberculosis H37Ra
  Kd: 0.0224 µM

## AHDELENYI
HLA-B*39:01 [15]; source organism: Camelpox virus CMS
  Kd: 2.86 µM
HLA-B*15:09; source organism: Variola virus
  Kd: 1.67 µM

## WEITYLGTT
HLA-B*18:01 [16]
  Kd: 0.297 µM
HLA-B*48:01
  Kd: ≥ 20 µM
HLA-B*40:01
  Kd: 3.26 µM
HLA-A*01:01
  Kd: ≥ 20 µM
HLA-B*15:01 [17]
  Kd: ≥ 10 µM
HLA-B*08:01
  Kd: ≥ 20 µM
HLA-A*68:02 [18]
  Kd: ≥ 20 µM
HLA-B*27:05
  Kd: ≥ 20 µM
HLA-A*26:01 [19]
  Kd: ≥ 20 µM
HLA-B*07:02
  Kd: ≥ 20 µM
HLA-A*02:01 [1]; [24]
  Kd: ≥ 20 µM
HLA-B*15:17 [20]
  Kd: ≥ 20 µM
HLA-B*39:01 [15]; [25]
  Kd: ≥ 20 µM
HLA-A*11:01
  Kd: ≥ 20 µM
HLA-B*57:01 [21]
  Kd: ≥ 20 µM
HLA-A*69:01 [2]; [24]
  Kd: ≥ 20 µM
HLA-B*15:09; [25]
  Kd: ≥ 20 µM
HLA-B*44:02
  Kd: ≥ 20 µM
HLA-B*58:01
  Kd: ≥ 20 µM
HLA-A*31:01 [22]
  Kd: ≥ 20 µM
HLA-A*03:01
  Kd: ≥ 20 µM
HLA-A*02:03; source organism: Mycobacterium tuberculosis variant bovis BCG str. Pasteur 1173P2
  Kd: ≥ 20 µM
